According to patent US10160993B2, “Tyrosine kinase biosensors and methods of use” (Purdue Research Foundation, priority 2014, dated 2018):
No end group written: not given here. *: point of attachment. Biotin = O=C1N[C@H]2[C@H](CS[C@H]2CCCCC(=O)*)N1

Assays:
Assay type in all cases: biochemical
Abl = Abl (Homo sapiens, UniProt P00519); assay: ELISA specificity assay, phosphorylation by Abl; conditions: conditions similar to ALK ELISA
Experimental: (§1) Referring now to FIG. 1 which illustrates ALAStide-A (SEQ. ID NO. 1) and ALAStide-B (SEQ. ID NO. 2) being phosphorylated by ALK kinase in vitro, the results are obtained by an enzyme-linked immunosorbent assay (ELISA). […] Total reaction volume is 50 μL, and reaction temperature is set between 35-38° C. At selected time points, 5 μL, sample was taken out and quenched in 20 μL 40 mM EDTA solution. The quenched samples were then used to perform ELISA assay.
(§2) The specificity of the ALK-specific biosensors, ALAStide-A and ALAStide-B is shown in an ELISA assay, with YFF peptide used as a positive and negative control. The ALK-specific biosensors were assayed for phosphorylation activity against ALK, Lyn, Abl, and Csk. YFF peptide, whose kinase specificity (as reported in Biochemistry 44, 8533-8542, 2005) is used as a reference. The experimental condition may be similar to those described for the ELISA assay above.

Csk = Csk (Homo sapiens, UniProt P41240); assay: ELISA specificity assay, phosphorylation by Csk; conditions: conditions similar to ALK ELISA
Chain of Csk (P41240 whole entry, species assumed): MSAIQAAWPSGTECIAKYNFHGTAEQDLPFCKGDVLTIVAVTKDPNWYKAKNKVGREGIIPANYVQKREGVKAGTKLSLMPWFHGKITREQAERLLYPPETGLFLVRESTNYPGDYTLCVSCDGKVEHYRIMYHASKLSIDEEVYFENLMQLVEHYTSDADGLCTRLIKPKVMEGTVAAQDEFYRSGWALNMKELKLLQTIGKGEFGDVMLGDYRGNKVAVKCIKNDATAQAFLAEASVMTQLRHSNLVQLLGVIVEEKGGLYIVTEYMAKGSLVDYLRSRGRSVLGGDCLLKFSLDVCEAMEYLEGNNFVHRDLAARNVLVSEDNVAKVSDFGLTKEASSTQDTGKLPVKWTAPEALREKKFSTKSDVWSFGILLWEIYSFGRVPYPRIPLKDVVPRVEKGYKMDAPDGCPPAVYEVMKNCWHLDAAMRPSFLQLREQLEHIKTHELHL
Experimental: as §1, §2

Lyn = Lyn (Homo sapiens, UniProt P07948); assay: ELISA specificity assay, phosphorylation by Lyn; conditions: conditions similar to ALK ELISA
Chain of Lyn (P07948 whole entry, species assumed): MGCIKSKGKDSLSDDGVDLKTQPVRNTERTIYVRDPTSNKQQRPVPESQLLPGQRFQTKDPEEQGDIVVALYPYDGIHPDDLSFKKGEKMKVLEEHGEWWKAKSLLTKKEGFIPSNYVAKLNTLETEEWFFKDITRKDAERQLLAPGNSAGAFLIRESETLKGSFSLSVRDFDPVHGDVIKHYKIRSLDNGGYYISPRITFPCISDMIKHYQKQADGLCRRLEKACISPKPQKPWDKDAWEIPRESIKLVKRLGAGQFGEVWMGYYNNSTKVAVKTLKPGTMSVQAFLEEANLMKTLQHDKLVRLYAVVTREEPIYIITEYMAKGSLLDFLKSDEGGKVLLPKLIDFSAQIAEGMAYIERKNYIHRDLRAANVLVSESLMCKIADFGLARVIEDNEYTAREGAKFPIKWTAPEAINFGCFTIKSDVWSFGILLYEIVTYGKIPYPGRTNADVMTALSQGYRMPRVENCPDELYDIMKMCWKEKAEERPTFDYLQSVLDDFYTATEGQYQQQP
Experimental: as §1, §2

ALK kinase = ALK kinase (Homo sapiens, UniProt Q9UM73); assay: ELISA assay of peptide phosphorylation by ALK kinase in vitro; conditions: 25 μM peptides, 0.1 unit kinase, 100 μM ATP, 10 mM Mg2+, pH 7.5, 35-38° C.
Chain of ALK kinase (Q9UM73 19-1620): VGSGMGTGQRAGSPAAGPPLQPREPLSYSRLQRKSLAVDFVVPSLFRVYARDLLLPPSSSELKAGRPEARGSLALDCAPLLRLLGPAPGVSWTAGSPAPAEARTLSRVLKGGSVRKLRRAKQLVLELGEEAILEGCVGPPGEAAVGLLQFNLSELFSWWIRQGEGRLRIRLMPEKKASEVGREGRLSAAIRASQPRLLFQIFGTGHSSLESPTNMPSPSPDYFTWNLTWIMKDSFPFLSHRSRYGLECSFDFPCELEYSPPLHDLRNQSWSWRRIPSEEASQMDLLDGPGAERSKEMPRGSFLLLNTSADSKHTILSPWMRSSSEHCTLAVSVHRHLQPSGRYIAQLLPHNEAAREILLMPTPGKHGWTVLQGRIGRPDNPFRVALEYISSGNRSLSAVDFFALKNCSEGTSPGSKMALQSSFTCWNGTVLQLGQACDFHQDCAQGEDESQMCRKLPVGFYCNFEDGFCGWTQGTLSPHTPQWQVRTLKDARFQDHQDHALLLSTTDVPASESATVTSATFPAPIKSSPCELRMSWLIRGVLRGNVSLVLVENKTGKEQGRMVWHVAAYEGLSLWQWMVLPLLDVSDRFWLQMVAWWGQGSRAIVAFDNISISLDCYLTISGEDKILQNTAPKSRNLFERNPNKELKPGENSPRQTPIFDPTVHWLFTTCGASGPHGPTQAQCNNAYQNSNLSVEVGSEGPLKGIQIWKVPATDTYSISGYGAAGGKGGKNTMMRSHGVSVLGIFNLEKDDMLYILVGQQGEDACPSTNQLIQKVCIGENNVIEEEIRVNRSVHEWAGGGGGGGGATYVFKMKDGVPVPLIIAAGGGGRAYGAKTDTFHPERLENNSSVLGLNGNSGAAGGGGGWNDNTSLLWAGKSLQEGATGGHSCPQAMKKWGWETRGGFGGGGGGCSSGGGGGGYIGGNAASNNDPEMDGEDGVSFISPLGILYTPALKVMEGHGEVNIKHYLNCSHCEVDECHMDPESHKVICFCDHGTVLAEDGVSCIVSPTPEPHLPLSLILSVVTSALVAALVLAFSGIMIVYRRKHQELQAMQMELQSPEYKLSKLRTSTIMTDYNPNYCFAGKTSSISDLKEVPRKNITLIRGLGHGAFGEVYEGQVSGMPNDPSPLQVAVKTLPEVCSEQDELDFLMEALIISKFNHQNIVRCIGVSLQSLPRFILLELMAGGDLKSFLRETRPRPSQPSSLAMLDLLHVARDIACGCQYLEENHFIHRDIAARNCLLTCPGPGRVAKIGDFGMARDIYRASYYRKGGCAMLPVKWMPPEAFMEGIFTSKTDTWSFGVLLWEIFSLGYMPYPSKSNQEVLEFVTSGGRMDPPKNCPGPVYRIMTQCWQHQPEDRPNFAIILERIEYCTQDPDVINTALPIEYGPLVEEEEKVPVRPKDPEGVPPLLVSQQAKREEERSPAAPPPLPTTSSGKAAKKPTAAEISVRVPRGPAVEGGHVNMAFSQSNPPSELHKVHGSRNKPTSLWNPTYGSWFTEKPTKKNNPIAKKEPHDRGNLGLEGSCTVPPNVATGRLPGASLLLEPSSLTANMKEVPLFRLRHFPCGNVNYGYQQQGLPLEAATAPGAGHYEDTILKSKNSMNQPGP
Experimental: as §1

Chain of Abl (P00519 whole entry, species assumed): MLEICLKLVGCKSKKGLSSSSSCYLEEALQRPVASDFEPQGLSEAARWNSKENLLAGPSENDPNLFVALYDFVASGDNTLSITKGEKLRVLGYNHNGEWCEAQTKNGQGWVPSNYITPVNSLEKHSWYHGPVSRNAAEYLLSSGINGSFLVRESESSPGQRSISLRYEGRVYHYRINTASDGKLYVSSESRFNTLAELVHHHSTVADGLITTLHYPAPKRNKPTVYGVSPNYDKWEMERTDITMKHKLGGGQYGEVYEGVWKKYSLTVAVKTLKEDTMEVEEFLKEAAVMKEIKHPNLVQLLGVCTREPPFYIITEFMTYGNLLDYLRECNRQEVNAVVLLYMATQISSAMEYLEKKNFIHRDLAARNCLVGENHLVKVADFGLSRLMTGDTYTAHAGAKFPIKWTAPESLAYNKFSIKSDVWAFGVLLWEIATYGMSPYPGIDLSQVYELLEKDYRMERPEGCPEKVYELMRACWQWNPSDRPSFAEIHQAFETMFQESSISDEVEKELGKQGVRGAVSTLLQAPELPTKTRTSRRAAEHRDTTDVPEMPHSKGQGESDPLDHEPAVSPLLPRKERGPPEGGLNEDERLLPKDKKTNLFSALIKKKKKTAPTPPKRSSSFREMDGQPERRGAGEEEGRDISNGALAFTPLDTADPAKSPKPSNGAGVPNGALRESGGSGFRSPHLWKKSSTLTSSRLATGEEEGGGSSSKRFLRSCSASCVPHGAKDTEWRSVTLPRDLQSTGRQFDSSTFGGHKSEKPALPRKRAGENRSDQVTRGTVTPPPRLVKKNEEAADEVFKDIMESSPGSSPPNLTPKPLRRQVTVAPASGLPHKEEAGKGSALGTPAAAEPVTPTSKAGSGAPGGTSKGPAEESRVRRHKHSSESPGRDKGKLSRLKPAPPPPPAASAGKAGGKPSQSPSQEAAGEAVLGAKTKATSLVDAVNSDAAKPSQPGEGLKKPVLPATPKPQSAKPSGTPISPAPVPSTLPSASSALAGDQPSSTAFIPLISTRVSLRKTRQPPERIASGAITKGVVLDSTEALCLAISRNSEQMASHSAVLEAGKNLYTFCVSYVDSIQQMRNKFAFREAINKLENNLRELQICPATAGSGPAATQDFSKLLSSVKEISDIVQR

Substance | phosphorylation by Abl (ELISA) (Abl) | phosphorylation by Csk (ELISA) (Csk) | phosphorylation by Lyn (ELISA) (Lyn) | phosphorylation by ALK kinase (ELISA), compared with YFF peptide (ALK kinase)
FGMARDIYRASFFRKGGKbGG (FGMARDIYRASFFRKGGK(Biotin)GG) [YFF peptide, known peptide substrate of ALK in the literature, reference compound] | lack of affinity | lack of affinity | lack of affinity | –
FDMDRDIYRMSFFRKGGKbGG (FDMDRDIYRMSFFRKGGK(Biotin)GG) [ALAStide-A, ALK-specific biosensor peptide; Kb is biotinylated lysine] | not phosphorylated | not phosphorylated | not phosphorylated | higher phosphorylation activity than YFF and ALAStide-B
FDMDRDIYTNTFFRKGGKbGG (FDMDRDIYTNTFFRKGGK(Biotin)GG) [ALAStide-B, ALK-specific biosensor peptide; Kb is biotinylated lysine] | not phosphorylated | not phosphorylated | not phosphorylated | comparable phosphorylation level with YFF peptide
